These results are taken from PMC5299495, “Co‐immobilized Phosphorylated Cofactors and Enzymes as Self‐Sufficient Heterogeneous Biocatalysts for Chemical Processes” (Angewandte Chemie (International Ed. in English), 2016).

Broadly, the Km is the concentration of substrate that gives half-maximal velocity.

Substrate in the data set: NC(=O)c1ccc[n+]([C@@H]2O[C@H](COP(=O)(O)OP(=O)(O)OC[C@H]3O[C@@H](n4cnc5c(N)ncnc54)[C@H](O)[C@@H]3O)[C@@H](O)[C@H]2O)c1
As to the kind of experiment: steady-state kinetics, soluble enzyme and soluble NAD+. In kind it is biochemical, [Candida] boidinii. The conditions noted are these: free enzyme; co-substrate formate.

B1: Cb‐FDH ([Candida] boidinii) (protein)
chain: MKIVLVLYDAGKHAADEEKLYGCTENKLGIANWLKDQGHELITTSDKEGETSELDKHIPDADIIITTPFHPAYITKERLDKAKNLKLVVVAGVGSDHIDLDYINQTGKKISVLEVTGSNVVSVAEHVVMTMLVLVRNFVPAHEQIINHDWEVAAIAKDAYDIEGKTIATIGAGRIGYRVLERLLPFNPKELLYYDYQALPKEAEEKVGARRVENIEELVAQADIVTVNAPLHAGTKGLINKELLSKFKKGAWLVNTARGAICVAEDVAAALESGQLRGYGGDVWFPQPAPKDHPWRDMRNKYGAGNAMTPHYSGTTLDAQTRYAEGTKNILESFFTGKFDYRPQDIILLNGEYVTKAYGKHDKK
notes: free soluble enzyme
Regarding B1, the Km amounted to 85 ± 0.9 µM.
